Earlier results in publication PMC4138051.
Like-named read-outs stand apart in the source and are kept apart here.

Legend:
[1] = biological target: MLL MBM1 6-13 (Homo sapiens) (UniProt Q03164)
MLL 1-160 (Homo sapiens) [2] = biological target: MLL 1-160 (Homo sapiens) (UniProt Q03164)
MLL 1-160 (Homo sapiens) [3] = biological target: MLL 1-160 (Homo sapiens) (UniProt Q03164); remark: listed apart in the source
[4] = biological target: MLL MBM2 24-40 (Homo sapiens) (UniProt Q03164)

Substance: menin (from UniProt O00255)
- Kd [1]: 56 nM
- Kd (MLL 1-160 (Homo sapiens) [2]): 10 nM
- Kd (MLL 1-160 (Homo sapiens) [3]): 1500 nM
- Kd [4]: 1000 nM
